Source: patent US9618524B2, “Method, composition, isolation and identification of a plaque particle and related biomarker” (Plaxgen Inc., priority 2012, dated 2017)

B1: Complement factor H-related protein 1 (protein)
chain: EATFCDFPKINHGILYDEEKYKPFSQVPTGEVFYYSCEYNFVSPSKSFWTRITCTEEGWSPTPKCLRLCFFPFVENGHSESSGQTHLEGDTVQIICNTGYRLQNNENNISCVERGWSTPPKCRSTDTSCVNPPTVQNAHILSRQMSKYPSGERVRYECRSPYEMFGDEEVMCLNGNWTEPPQCKDSTGKCGPPPPIDNGDITSFPLSVYAPASSVEYQCQNLYQLEGNKRITCRNGQWSEPPKCLHPCVISREIMENYNIALRWTAKQKLYLRTGESAEFVCKRGYRLSSRSHTLRTTCWDGKLEYPTCAKR
B2: Galectin-3-binding protein (protein)
chain: VNDGDMRLADGGATNQGRVEIFYRGQWGTVCDNLWDLTDASVVCRALGFENATQALGRAAFGQGSGPIMLDEVQCTGTEASLADCKSLGWLKSNCRHERDAGVVCTNETRSTHTLDLSRELSEALGQIFDSQRGCDLSISVNVQGEDALGFCGHTVILTANLEAQALWKEPGSNVTMSVDAECVPMVRDLLRYFYSRRIDITLSSVKCFHKLASAYGARQLQGYCASLFAILLPQDPSFQMPLDLYAYAVATGDALLEKLCLQFLAWNFEALTQAEAWPSVPTDLLQLLLPRSDLAVPSELALLKAVDTWSWGERASHEEVEGLVEKIRFPMMLPEELFELQFNLSLYWSHEALFQKKTLQALEFHTVPFQLLARYKGLNLTEDTYKPRIYTSPTWSAFVTDSSWSARKSQLVYQSRRGPLVKYSSDYFQAPSDYRYYPYQSFQTPQHPSFLFQDKRVSWSLVYLPTIQSCWNYGFSCSSDELPVLGLTKSGGSDRTIAYENKALMLCEGLFVADVTDFEGWKAAIPSALDTNSSKSTSSFPCPAGHFNGFRTVIRPFYLTNSSGVD
B3: Ig heavy chain V-I region HG3 (protein)
chain: QVQLVQSGAEVKKPGASVKVSCKASGYTFTSYYMHWVRQAPGQGLEWMGIINPSGGSTSYAQKFQGRVTMTRDTSTSTVYMELSSLRSEDTAVYYCAR
B4: Heterogeneous nuclear ribonucleoprotein R (protein)
chain: ANQVNGNAVQLKEEEEPMDTSSVTHTEHYKTLIEAGLPQKVAERLDEIFQTGLVAYVDLDERAIDALREFNEEGALSVLQQFKESDLSHVQNKSAFLCGVMKTYRQREKQGSKVQESTKGPDEAKIKALLERTGYTLDVTTGQRKYGGPPPDSVYSGVQPGIGTEVFVGKIPRDLYEDELVPLFEKAGPIWDLRLMMDPLSGQNRGYAFITFCGKEAAQEAVKLCDSYEIRPGKHLGVCISVANNRLFVGSIPKNKTKENILEEFSKVTEGLVDVILYHQPDDKKKNRGFCFLEYEDHKSAAQARRRLMSGKVKVWGNVVTVEWADPVEEPDPEVMAKVKVLFVRNLATTVTEEILEKSFSEFGKLERVKKLKDYAFVHFEDRGAAVKAMDEMNGKEIEGEEIEIVLAKPPDKKRKERQAARQASRSTAYEDYYYHPPPRMPPPIRGRGRGGGRGGYGYPPDYYGYEDYYDDYYGYDYHDYRGGYEDPYYGYDDGYAVRGRGGGRGGRGAPPPPRGRGAPPPRGRAGYSQRGAPLGPPRGSRGGRGGPAQQQRGRGSRGSRGNRGGNVGGKRKADGYNQPDSKRRQTNNQQNWGSQPIAQQPLQQGGDYSGNYGYNNDNQEFYQDTYGQQWK
B5: Apolipoprotein F (protein)
chain: SLPTEDCENEKEQAVHNVVQLLPGVGTFYNLGTALYYATQNCLGKARERGRDGAIDLGYDLLMTMAGMSGGPMGLAISAALKPALRSGVQQLIQYYQDQKDANISQPETTKEGLRAISDVSDLEETTTLASFISEVVSSAPYWGWAIIKSYDLDPGAGSLEI
B6: Isoform 2 of C4b-binding protein beta chain (protein)
chain: ASDEHCPELPPVDNSIFVAKEVEGQILGTYVCIKGYHLVGKKTLFCNASKEWDNTTTECRLGHCPDPVLVNGEFSSSGPVNVSDKITFMCNDHYILKGSNRSQCLEDHTWAPPFPICKSRDCDPPGNPVHGYFEGNNFTLGSTISYYCEDRYYLVGVQEQQCVDGEWSSALPVCKLIQEAPKPECEKALLAFQESKNLCEAMENFMQQLKESGMTMEELKYSLELKKAELKAKLL
B7: Cluster of Keratin, type II cytoskeletal 2 epidermal (protein, UniProt P35908 1-639, looked up)
Keratin, type II cytoskeletal …: MSCQISCKSRGRGGGGGGFRGFSSGSAVVSGGSRRSTSSFSCLSRHGGGGGGFGGGGFGSRSLVGLGGTKSISISVAGGGGGFGAAGGFGGRGGGFGGGSSFGGGSGFSGGGFGGGGFGGGRFGGFGGPGGVGGLGGPGGFGPGGYPGGIHEVSVNQSLLQPLNVKVDPEIQNVKAQEREQIKTLNNKFASFIDKVRFLEQQNQVLQTKWELLQQMNVGTRPINLEPIFQGYIDSLKRYLDGLTAERTSQNSELNNMQDLVEDYKKKYEDEINKRTAAENDFVTLKKDVDNAYMIKVELQSKVDLLNQEIEFLKVLYDAEISQIHQSVTDTNVILSMDNSRNLDLDSIIAEVKAQYEEIAQRSKEEAEALYHSKYEELQVTVGRHGDSLKEIKIEISELNRVIQRLQGEIAHVKKQCKNVQDAIADAEQRGEHALKDARNKLNDLEEALQQAKEDLARLLRDYQELMNVKLALDVEIATYRKLLEGEECRMSGDLSSNVTVSVTSSTISSNVASKAAFGGSGGRGSSSGGGYSSGSSSYGSGGRQSGSRGGSGGGGSISGGGYGSGGGSGGRYGSGGGSKGGSISGGGYGSGGGKHSSGGGSRGGSSSGGGYGSGGGGSSSVKGSSGEAFGSSVTFSFR

Molecular target: T1, Abeta-42 plaque particles (Homo sapiens, UniProt P05067)
T1 construct: Abeta 1-42
Test: Mass spectroscopy proteomics, semi-quantitative binding affinity of serum proteins (plaqueproteome, Table 2)
Settings: higher number = stronger affinity
Summary of the method: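 AD patient serum or plasma (50% in PBS) was incubated with Abeta-42 aggregates (30 μg) for 1 h at 37 °C, then stained with Thioflavin S for 30 min. Labeled particles were FACS-sorted, trypsin/Lys-C digested overnight and analyzed by MS/MS. Sequest searched human UniProt; Scaffold/Protein Prophet validated the identifications.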

Molecule	Semi-quantitative analysis of proteins binding to different plaque particles: Abeta-42
B1	0
B2	0
B3	2
B4	2
B5	0
B6	0
B7	171

Molecular target: T2, alpha-synuclein plaque particles (Homo sapiens, UniProt P37840)
T2 construct: 140 amino acids polypeptide
Test: as above
Settings: higher number = stronger affinity
Summary of the method: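 AD-subject plasma or serum (800 μL of 50%) mixed with 30 μg preformed alpha-synuclein aggregates for 1 h at 37 °C; Thioflavin S-positive particles isolated by flow sorting. After reduction, acrylamide alkylation and overnight tryptic digestion, serum proteins identified by MS/MS with Sequest and Scaffold.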

Molecule	Semi-quantitative analysis of proteins binding to different plaque particles: Synuclein
B1	0
B2	0
B3	2
B4	0
B5	2
B6	0
B7	3

System: High Density cholesterol (Chl Large) plaque particles
Test: as above
Design: species or system human
Settings: higher number = stronger affinity
Summary of the method: (§1)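 Atherosclerotic plasma/serum (50% in PBS) + 30 μg cholesterol aggregates, 1 hr 37° C; FACS gates split low- vs high-density particles. Acetone precipitation, urea/ProteaseMAX, acrylamide alkylation, overnight Trypsin/Lys C at 37° C; Sequest search, Scaffold/Protein Prophet validation.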

Molecule	Semi-quantitative analysis of proteins binding to different plaque particles: Chl Large
B1	2
B2	1
B3	1
B4	0
B5	0
B6	0
B7	14

System: Low density cholesterol (Chl small) plaque particles
Test: as above
Design: species or system human
Settings: higher number = stronger affinity
Summary of the method: as §1

Molecule	Semi-quantitative analysis of proteins binding to different plaque particles: Chl small
B1	1
B2	0
B3	1
B4	0
B5	1
B6	1
B7	20

System: Tau plaque particles
Test: as above
Design: species or system human
Settings: higher number = stronger affinity
Summary of the method: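 Serum or plasma proteins captured on Thioflavin S-labelled Tau plaque particles (Tau-74, Tau-275 oligomers preformed in PBS at 37° C for 2 h; 1 h co-incubation at 37° C) were isolated by FACS sorting, then tryptically digested and identified by MS/MS (Sequest, human UniProt, strict trypsin).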

Molecule	Semi-quantitative analysis of proteins binding to different plaque particles: Tau
B1	1
B2	0
B3	1
B4	0
B5	1
B6	0
B7	24
